For 3 molecules, ECL signal results are on record in US20120316071A1 (published 2012).

Experiment [1] addresses T1, rHuman HGF R/c-MET/Fc Chimera, CF (R&D Systems Cat#358-MT/CF) (human, UniProt P08581 25-932).
T1 construct: Bought reagent; also called HGF R/Fc; hepatocyte growth factor receptor
Put plainly: MSD multispot ECL, antigen spotted, Fab 37.2 nM; blank spot 199.

In experiment [2] the target is T2, rHuman ErbB2/Fc Chimera, CF (R&D Systems Cat#1129-ER) (human, UniProt P04626 23-652).
T2 construct: Bought reagent; also called human epidermal growth factor 2 receptor
The experiment is described as above.

In experiment [3] the target is T3, rHuman Erythropoietin R/Fc Chimera, CF (R&D Systems Cat#963-ER) (human, UniProt P19235 25-250).
T3 construct: Bought reagent; also called EPO R/Fc; Epo R
T3 sequence (looked up): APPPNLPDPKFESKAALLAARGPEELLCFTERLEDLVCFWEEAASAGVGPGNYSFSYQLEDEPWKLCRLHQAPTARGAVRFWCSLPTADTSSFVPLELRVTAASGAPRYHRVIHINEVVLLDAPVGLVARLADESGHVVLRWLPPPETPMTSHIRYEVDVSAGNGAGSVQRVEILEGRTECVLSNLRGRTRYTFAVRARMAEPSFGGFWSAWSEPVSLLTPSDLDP
Described as above.

Experiment [4] deals with T4, rHuman CD44/Fc Chimera, CF (R&D Systems Cat#3660-CD) (human, UniProt P16070 21-220).
T4 construct: Bought reagent
The experiment is described as above.

Experiment [5] has as its target T5, Recombinant Human DLL4 (R&D Systems Cat#1506-D4/CF) (human, UniProt Q9NR61 27-524).
T5 construct: Bought recombinant protein; also called rHuman DLL4; delta-like protein 4
The experiment is described as above.

In experiment [6] the target is T6, rHuman IGF-1 sR, (IGF-1 sR), CF (R&D Systems Cat#391-GR) (human, UniProt P08069 31-932).
T6 construct: Bought soluble receptor; also called insulin-like growth factor-1 soluble receptor
The experiment is described as above.

In experiment [7] the target is T7, rHuman Notch-1/Fc Chimera, CF (R&D Systems Cat#3647-TK) (human, UniProt P46531 19-526).
T7 construct: Bought reagent
The description is as above.

Experiment [8] addresses T8, rHuman EGF R/Fc Chimera, CF (R&D Systems Cat#344-ER) (human, UniProt P00533 25-645).
T8 construct: Bought reagent; also called epidermal growth factor receptor
The experiment is described as above.

In experiment [9] the target is T3, rHuman Erythropoietin R/Fc Chimera, CF …. Description: MSD multispot ECL, antigen spotted, Fab 148.9 nM; blank spot 218.
Experiment [10] deals with T9, rHuman Notch-1/Fc Chimera, CF (R&D Systems Cat#3647-TK) (human, UniProt P46531 19-526).
T9 construct: Bought Fc chimera; Fc part of the bought chimera not given
Description: MSD Multispot ECL, antigen spotted on plate, Fab at 480 nM; blank spot 362.

In experiment [11] the target is T10, rHuman CD44/Fc Chimera, CF (R&D Systems Cat#3660-CD) (human, UniProt P16070 21-220).
T10 construct: Bought Fc chimera; Fc part of the bought chimera not given
The description is as above.

Experiment [12] has as its target T11, rHuman P-Cadherin/Fc Chimera, CF (R&D Systems Cat#861-PC) (human, UniProt P22223 108-654).
T11 construct: Bought Fc chimera; Fc part of the bought chimera not given
The experiment is described as above.

The target of experiment [13] is T12, Recombinant Human DLL4 (R&D Systems Cat#1506-D4/CF) (human, UniProt Q9NR61 27-524).
T12 construct: Bought recombinant protein; also called rHuman DLL4; delta-like protein 4
The experiment is described as above.

Experiment [14] has as its target T13, rHuman Erythropoietin R/Fc Chimera, CF (R&D Systems Cat#963-ER) (human, UniProt P19235 25-250).
T13 construct: Bought Fc chimera; also called EPO R/Fc; Epo R; Fc part of the bought chimera not given
T13 sequence (looked up): T3 sequence (looked up)
The experiment is described as above.

The target of experiment [15] is T14, rHuman P-Cadherin/Fc Chimera, CF (R&D Systems Cat#861-PC) (human, UniProt P22223 108-654).
T14 construct: Bought recombinant protein; Fc part of the bought chimera not given
Description: MSD multispot ECL, antigen spotted on plate; Fab 0.1275 uM; blank spot 530.

Experiment [16] concerns the target T15, rHuman IGF-1 sR, CF (R&D Systems Cat#391-GR) (human, UniProt P08069 31-932).
T15 construct: Bought recombinant soluble receptor; also called insulin-like growth factor-1 soluble receptor
The experiment is described as above.

In experiment [17] the target is T16, Recombinant Human DLL4 (R&D Systems Cat#1506-D4/CF) (human, UniProt Q9NR61 27-524).
T16 construct: Bought recombinant protein; also called delta-like protein 4; rHuman DLL4
The description is as above.

Experiment [18] concerns the target T17, rHuman EGF R/Fc Chimera, CF (R&D Systems Cat#344-ER) (human, UniProt P00533 25-645).
T17 construct: Bought recombinant protein; also called epidermal growth factor receptor; Fc part of the bought chimera not given
The description is as above.

Experiment [19] concerns the target T18, rHuman Erythropoietin R/Fc Chimera, CF (R&D Systems Cat#963-ER) (human, UniProt P19235 25-250).
T18 construct: Bought recombinant protein; also called EPO R/Fc; Epo R; Fc part of the bought chimera not given
T18 sequence (looked up): T3 sequence (looked up)
The experiment is described as above.

T1 sequence (P08581 25-932, change not shown): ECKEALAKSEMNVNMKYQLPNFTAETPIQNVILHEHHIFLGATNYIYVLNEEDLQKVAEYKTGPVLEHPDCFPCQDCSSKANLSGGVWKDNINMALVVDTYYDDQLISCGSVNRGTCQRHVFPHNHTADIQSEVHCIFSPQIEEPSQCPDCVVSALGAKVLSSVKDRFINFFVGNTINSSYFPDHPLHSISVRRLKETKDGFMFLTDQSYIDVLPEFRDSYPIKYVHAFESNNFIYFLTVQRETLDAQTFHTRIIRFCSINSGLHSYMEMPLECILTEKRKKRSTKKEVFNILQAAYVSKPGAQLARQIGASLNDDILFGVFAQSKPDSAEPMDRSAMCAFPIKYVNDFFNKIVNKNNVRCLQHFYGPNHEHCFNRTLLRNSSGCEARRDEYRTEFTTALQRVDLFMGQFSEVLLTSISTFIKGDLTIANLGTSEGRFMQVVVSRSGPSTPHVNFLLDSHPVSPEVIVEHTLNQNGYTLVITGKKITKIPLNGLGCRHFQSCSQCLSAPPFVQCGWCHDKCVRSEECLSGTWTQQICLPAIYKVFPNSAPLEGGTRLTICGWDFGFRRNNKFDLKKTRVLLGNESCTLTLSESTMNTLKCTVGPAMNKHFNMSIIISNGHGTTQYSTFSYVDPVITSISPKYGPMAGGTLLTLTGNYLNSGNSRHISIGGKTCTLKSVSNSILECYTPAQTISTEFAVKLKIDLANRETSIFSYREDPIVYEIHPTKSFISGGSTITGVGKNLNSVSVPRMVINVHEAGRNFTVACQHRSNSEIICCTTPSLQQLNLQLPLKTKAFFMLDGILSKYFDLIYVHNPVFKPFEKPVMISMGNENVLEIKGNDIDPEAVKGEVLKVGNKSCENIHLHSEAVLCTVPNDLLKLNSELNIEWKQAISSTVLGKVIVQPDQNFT

B1: Fab VH1-46_IGHD6-6*01_IGHJ1*01 & L6_IGKJ1*01 (Fab, V domains shown)
VH: QVQLVQSGAEVKKPGASVKVSCKASGYTFTSYYMHWVRQAPGQGLEWMGIINPSGGSTSYAQKFQGRVTMTRDTSTSTVYMELSSLRSEDTAVYYCAREEYSSSSAEYFQHWGQGTLVTVSS
VL: not shown
notes: Only variable domains are tied to the molecule; Tested as a Fab made in E. coli: heavy chain from Plasmid A (CH1 constant region, His6 and Flag tags), kappa light chain from Plasmid C (kappa CL); also called parent Hit Fab against DLL4; VH1-46_IGHD6-6*01_IGHJ1*01 & L6_IGKJ1*01 (parental)
In the case of B1, the ECL signal in experiment [1] came out at 207 ECL signal; in experiment [2] it was 384 ECL signal; in experiment [3], 315 ECL signal; in experiment [4], 356 ECL signal; in experiment [5], 16700 ECL signal; in experiment [6], 295 ECL signal. The ECL signal in experiment [7] was 402 ECL signal; in experiment [8], 228 ECL signal; in [9], 373 ECL signal.

B2: Fab VH6-1_IGHD3-3*01_IGHJ4*01 & V4-3_IGLJ4*01 (Fab, V domains shown)
VH: QVQLQQSGPGLVKPSQTLSLTCAISGDSVSSNSAAWNWIRQSPSRGLEWLGRTYYRSKWYNDYAVSVKSRITINPDTSKNQFSLQLNSVTPEDTAVYYCAREYYDFWSGYYTDYFDYWGQGTLVTVSS
VL: QPVLTQPTSLSASPGASARLTCTLRSGINLGSYRIFWYQQKPESPPRYLLSYYSDSSKHQGSGVPSRFSGSKDASSNAGILVISGLQSEDEADYYCMIWHSSASFVFGGGTQLIIL
notes: Tested as a purified germline Fab made in E. coli; The VH was cloned into plasmid A (CH1 constant region, His6 and Flag tags) and the lambda VL into plasmid E (lambda CL)
Take B2: the ECL signal came to 545 in experiment [10]; 541 in experiment [11]; 596 in experiment [12]; 1530 in [13]; 621 in experiment [14].

B3: Fab VH4-34_IGHD7-27*01_IGHJ4*01 & L5_IGKJ1*01 (Fab, V domains shown)
VH: QVQLQQWGAGLLKPSETLSLTCAVYGGSFSGYYWSWIRQPPGKGLEWIGEINHSGSTNYNPSLKSRVTISVDTSKNQFSLKLSSVTAADTAVYYCARANWGDYFDYWGQGTLVTVSS
VL: DIQMTQSPSSVSASVGDRVTITCRASQGISSWLAWYQQKPGKAPKLLIYAASSLQSGVPSRFSGSGSGTDFTLTISSLQPEDFATYYCQQANSFPPWTFGQGTKVEIKR
notes: Germline library Fab expressed in E. coli; VH was cloned into Plasmid A, which adds CH1 with His6 and Flag tags
With B3, the ECL signal came out at 957 in experiment [15]; 1040 in [16]; 2380 in experiment [17]; 1060 in [18]; 1070 in [19].
